In patent US20260144882A1 (BIO THERA SOLUTIONS, published 2026):
Values joined by “and” are separate entries in the source; they are usually repeats but may differ in a detail not shown here. Equal values may be shown once.

T1: human Nectin-4, full length on cells (human, UniProt Q96NY8 32-510)
T1 construct: whole, on cells; T-47D cells positive for Nectin-4 expression; also called Nectin-4 on T-47D cells; CHO-Nectin-4
T1 sequence (looked up): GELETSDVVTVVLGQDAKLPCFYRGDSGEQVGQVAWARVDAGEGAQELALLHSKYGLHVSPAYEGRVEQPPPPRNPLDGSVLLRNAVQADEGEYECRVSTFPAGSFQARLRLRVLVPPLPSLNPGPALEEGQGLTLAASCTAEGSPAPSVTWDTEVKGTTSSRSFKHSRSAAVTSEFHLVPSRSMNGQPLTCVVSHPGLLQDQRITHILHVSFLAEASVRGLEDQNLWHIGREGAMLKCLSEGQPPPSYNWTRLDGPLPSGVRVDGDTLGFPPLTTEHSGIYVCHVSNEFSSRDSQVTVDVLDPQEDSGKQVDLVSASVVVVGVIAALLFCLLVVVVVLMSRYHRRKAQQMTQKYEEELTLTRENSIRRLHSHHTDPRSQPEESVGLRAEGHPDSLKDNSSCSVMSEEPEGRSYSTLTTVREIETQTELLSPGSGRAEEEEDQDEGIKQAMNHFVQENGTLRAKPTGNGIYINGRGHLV

T2: human Nectin-4 extracellular antigen hNectin-4-His (human, UniProt Q96NY8 32-349)
T2 construct: C-terminal 8xHis tag included
T2 sequence: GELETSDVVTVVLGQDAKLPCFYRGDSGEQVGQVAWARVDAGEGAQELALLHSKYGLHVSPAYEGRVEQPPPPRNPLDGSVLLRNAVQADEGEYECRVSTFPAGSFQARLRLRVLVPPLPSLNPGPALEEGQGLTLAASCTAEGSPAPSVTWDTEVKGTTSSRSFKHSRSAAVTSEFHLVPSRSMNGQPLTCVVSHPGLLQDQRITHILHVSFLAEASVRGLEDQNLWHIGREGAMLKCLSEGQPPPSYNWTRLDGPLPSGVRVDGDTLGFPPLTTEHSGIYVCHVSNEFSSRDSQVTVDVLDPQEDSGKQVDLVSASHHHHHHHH

T3: hNectin-2 (ACRO, PV2-H52E2) (human, UniProt Q92692 32-360)
T3 construct: bought; construct not described
T3 sequence (looked up): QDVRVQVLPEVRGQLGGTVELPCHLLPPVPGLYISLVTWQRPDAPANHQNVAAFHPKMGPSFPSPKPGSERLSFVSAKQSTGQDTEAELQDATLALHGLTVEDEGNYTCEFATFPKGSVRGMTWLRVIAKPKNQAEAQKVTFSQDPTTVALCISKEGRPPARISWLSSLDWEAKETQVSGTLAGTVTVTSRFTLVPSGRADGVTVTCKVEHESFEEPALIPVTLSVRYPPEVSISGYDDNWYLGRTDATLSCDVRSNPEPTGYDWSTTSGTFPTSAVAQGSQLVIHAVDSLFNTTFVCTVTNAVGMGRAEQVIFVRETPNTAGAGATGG


Columns and labels:
[1] = target: T1, human Nectin-4, full length on cells; experiment: flow cytometry, T-47D cells, antibody bound on ice, 0 h at 37 C
Method: In this assay, the relative amount of antibodies remaining on the cell surface after co-incubation at 37° C. for a certain period of time was detected by FACS to reflect the endocytosis efficiency. The procedures are briefly described as follows: T-47D cells (human ductal breast cancer cells, derived from the Cell Bank of Chinese Academy of Sciences, Cat.No. TCHu 87); the antibodies of interest were adjusted to 10 µg/mL and co-incubated with the cells on ice for 1 h; the cells were washed 3 times with pre-cooled PBS, and then placed at 37° C. and incubated for 0 h, 2 h and 4 h; 0.2% N₃Na was added to stop the endocytosis reaction; the cells were washed with PBS thrice, followed by the addition of the PE-labeled anti-human Fc secondary antibody (Invitrogen 12-4998-82); the cells were incubated at 4° C. for 30 min; the red fluorescence signal was detected on a flow cytometer.

[2] = target: T2, human Nectin-4 extracellular antigen …; experiment: SPR, antibody on Protein A chip, 1:1 fit
Description: In this study, the affinity of the antibodies for the human Nectin-4 extracellular antigen was detected by surface plasmon resonance (SPR) technique (BIAcore: GE Healthcare, T200).

[3] = target: T2, human Nectin-4 extracellular antigen …; experiment: ELISA, coated antigen
Description: (§1) The binding activity of the antibodies was detected by ELISA.
(§2) In this assay, the binding of different antibodies to human Nectin-4 homologous proteins hNectin-1 (ACRO, PV1-H5223), hNectin-2 (ACRO, PV2-H52E2), hNectin-3 (ACRO, PV3-H52E4), and hNectin-4-His was detected by ELISA to determine the specificity of the antibodies. For the methodology and procedures, see Example 4. Antigens of interest ([…]) were immobilized; after blocking, serially diluted antibodies (2-fold serially diluted from […]) were added, and HRP-labeled anti-human-Kappa secondary antibody was added for chromogenic reaction.

[4] = target: T3, hNectin-2 (ACRO, PV2-H52E2); experiment: ELISA, coated antigen
Description: as §1, §2

[5] = target: T2, human Nectin-4 extracellular antigen …; experiment: ELISA, coated hNectin-4-His
Description: as §1

[6] = target: T2, human Nectin-4 extracellular antigen …; experiment: ELISA, coated hNectin-4-His; remark: listed apart in the source
Description: as §1

Row | Binder | MFI (mean fluorescence intensity) 0 h [1] [MFI] | Kd [2] [nM] | koff [2] [s⁻¹] | kon [2] [M⁻¹ s⁻¹] | EC50 [3] [µg/mL] | binding result [4] | EC50 [5] [µg/mL] | EC50 [6]
1 | antibody 1G8 (antibody, human IgG1, kappa, V domains shown) VH: not shown VL: DIQMTQSPSSLSASVGDRVTITCRASQGISSYLAWYQQKPGKAPKLLIYAASSLQSGVPSRFSGSGSGTDFTLTISSLQPEDFATYYCQQHYTTPPTFGQGTKVEIKR | 105000 | 4.97 | 0.003 | 605000 | 0.041 | no binding (tested: 2-fold serially diluted from 2 g/mL) |  | 
2 | antibody 1F3 (antibody, human IgG1, kappa, V domains shown) VH: not shown VL: DIQMTQSPSSLSASVGDRVTITCRASQGISSYLAWYQQKPGKAPKLLIYAASSLQSGVPSRFSGSGSGTDFTLTISSLQPEDFATYYCQQHYTTPPTFGQGTKVEIKR | 121000 | 2.49 | 0.00195 | 785000 | 0.04 | no binding (tested: 2-fold serially diluted from 2 g/mL) | 0.005 | 
3 | antibody 10F4 (antibody, human IgG1, kappa, V domains shown) VH: not shown VL: DIQMTQSPSSLSASVGDRVTITCRASQGISSYLAWYQQKPGKAPKLLIYAASSLQSGVPSRFSGSGSGTDFTLTISSLQPEDFATYYCQQHYTTPPTFGQGTKVEIKR | 104000 | 3.23 | 0.00121 | 375000 | 0.045 | no binding (tested: 2-fold serially diluted from 2 g/mL) |  | 0.041 µg/mL and 0.043 µg/mL
